# Experiments:
# [1] = molecular target: Act88F^M305L Drosophila indirect flight muscle (IFM) actin, filamentous (F-Act88F^M305L) (Drosophila melanogaster)
# [2] = molecular target: Act88F^WT Drosophila indirect flight muscle (IFM) actin, filamentous (F-Act88F^WT) (Drosophila melanogaster) (UniProt P83967)
# Sequence of rabbit psoas myosin (Q28641 whole entry, looked up): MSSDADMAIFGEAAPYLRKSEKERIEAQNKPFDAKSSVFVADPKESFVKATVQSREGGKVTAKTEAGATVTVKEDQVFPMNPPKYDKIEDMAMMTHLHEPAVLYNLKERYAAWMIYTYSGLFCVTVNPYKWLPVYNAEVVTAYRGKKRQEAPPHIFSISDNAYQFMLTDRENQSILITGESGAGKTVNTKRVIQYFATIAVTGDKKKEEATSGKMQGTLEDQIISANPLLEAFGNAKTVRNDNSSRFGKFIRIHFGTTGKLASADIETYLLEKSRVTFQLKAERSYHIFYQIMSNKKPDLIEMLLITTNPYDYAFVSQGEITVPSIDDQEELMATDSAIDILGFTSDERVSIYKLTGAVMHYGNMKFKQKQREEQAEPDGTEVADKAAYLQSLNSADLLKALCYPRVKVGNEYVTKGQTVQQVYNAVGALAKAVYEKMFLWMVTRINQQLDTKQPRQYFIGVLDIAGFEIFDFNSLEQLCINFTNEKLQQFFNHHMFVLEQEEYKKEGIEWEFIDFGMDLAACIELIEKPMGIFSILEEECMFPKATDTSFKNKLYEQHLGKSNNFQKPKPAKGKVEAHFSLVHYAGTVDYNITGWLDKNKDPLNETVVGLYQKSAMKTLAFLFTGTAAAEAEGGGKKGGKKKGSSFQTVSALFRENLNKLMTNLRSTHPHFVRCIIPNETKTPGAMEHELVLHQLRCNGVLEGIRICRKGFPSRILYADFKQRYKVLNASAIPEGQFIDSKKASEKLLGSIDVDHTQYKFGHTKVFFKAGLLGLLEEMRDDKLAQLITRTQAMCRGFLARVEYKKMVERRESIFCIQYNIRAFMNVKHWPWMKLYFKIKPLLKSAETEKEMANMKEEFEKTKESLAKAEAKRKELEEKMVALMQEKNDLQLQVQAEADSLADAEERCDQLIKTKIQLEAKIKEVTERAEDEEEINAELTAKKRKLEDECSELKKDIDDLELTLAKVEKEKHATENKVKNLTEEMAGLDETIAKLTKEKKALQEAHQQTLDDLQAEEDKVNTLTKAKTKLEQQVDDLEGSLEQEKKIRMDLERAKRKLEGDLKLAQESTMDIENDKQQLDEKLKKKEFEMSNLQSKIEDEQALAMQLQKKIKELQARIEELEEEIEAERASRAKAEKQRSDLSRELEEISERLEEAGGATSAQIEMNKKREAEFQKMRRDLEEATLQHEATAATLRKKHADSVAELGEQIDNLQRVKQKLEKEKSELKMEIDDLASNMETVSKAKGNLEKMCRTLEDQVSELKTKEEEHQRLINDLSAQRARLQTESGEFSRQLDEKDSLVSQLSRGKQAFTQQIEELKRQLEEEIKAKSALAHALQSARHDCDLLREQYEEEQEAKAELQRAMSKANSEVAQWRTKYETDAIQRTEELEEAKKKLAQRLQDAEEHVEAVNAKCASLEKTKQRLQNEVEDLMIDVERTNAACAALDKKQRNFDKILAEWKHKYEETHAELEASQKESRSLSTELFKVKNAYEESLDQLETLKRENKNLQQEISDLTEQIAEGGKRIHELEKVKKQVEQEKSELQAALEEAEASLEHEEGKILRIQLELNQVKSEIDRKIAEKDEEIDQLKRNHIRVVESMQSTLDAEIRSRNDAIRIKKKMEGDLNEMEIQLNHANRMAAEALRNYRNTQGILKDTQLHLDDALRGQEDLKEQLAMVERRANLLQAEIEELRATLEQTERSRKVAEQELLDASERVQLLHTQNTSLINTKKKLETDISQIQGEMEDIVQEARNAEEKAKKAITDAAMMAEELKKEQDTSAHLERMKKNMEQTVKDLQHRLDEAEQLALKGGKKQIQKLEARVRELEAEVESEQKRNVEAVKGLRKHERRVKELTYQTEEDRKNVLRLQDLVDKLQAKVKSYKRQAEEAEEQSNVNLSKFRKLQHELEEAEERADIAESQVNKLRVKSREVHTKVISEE
# Sequence of porcine cardiac tropomyosin (Tpm) (P42639 whole entry): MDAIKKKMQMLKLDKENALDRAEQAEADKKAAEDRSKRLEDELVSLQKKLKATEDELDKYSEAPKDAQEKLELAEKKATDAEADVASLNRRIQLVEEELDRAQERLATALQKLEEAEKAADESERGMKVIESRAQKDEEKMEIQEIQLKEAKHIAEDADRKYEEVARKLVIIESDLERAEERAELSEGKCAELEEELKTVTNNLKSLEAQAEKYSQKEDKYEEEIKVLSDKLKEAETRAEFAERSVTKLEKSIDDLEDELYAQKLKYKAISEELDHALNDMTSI
"Filaments moving (%) in in vitro motility at 30 °C without Tpm, rabbit psoas myosin 12.5 to 100 µg ml^-1 (32.57 to 68.00 %) [1] [%]","Filaments moving (%) in in vitro motility at 30 °C without Tpm, rabbit psoas myosin 12.5 to 100 µg ml^-1 (31.02 to 68.11 %) [2] [%]","Filaments moving (%) in in vitro motility at 30 °C with 300 nM Tpm, rabbit psoas myosin 12.5 to 100 µg ml^-1 (21.17 to 71.16 %) [1] [%]","Filaments moving (%) in in vitro motility at 30 °C with 300 nM Tpm, rabbit psoas myosin 12.5 to 100 µg ml^-1 (14.96 to 62.87 %) [2] [%]",Substance
68,68.1,,,rabbit psoas myosin (from UniProt Q28641 1-1938) (complex)
,,71.2,62.9,porcine cardiac tropomyosin (Tpm) (from UniProt P42639 1-284) (natural protein)

# — article PMC7229152
